This is an account of results in patent publication US20140271651A1 (AbbVie / Abbott, published 2014).

The target in experiment [1] is T1, GP73-hFc (human GP73 amino acids 63 to 400 fused at the C-terminus to human IgG1 Fc) (human).
T1 construct: Expressed in HEK293F, CHO or HepG2 cells; the host is named under assay; also called HEK expressed GP73-hFc; CHO expressed GP73-hFc
T1 chain: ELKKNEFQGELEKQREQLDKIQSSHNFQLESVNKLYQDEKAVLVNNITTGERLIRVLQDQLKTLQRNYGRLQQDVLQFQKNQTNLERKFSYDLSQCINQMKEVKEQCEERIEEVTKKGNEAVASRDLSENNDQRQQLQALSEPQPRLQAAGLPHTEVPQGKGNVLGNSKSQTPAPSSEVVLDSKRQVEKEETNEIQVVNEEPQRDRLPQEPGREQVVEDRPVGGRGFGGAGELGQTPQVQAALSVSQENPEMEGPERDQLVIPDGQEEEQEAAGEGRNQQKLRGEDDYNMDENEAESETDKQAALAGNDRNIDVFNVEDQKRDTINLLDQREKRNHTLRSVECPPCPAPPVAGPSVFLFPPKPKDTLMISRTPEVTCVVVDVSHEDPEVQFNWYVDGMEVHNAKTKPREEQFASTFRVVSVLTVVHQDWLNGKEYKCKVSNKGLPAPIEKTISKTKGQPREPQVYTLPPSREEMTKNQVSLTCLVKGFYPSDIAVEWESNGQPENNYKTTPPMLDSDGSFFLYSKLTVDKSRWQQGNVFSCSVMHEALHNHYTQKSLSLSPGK
As to the kind of experiment: EIA, supernatant 1:25 captured on sheep anti-mouse IgG Fc, GP73-hFc, biotin goat anti-GP73. On the procedure:
Cell supernatant samples were analyzed for anti-GP73 antibodies by EIA. Sheep anti-mouse IgG Fc (Jackson Immunoresearch) was coated on 96 well micro-titer EIA plates at 1 μg/mL. After the capture reagent was coated on the solid phase, it was removed and the plates were blocked using a BSA/PBS block solution. The wells were washed with distilled water and cell supernatants were added to the blocked plates and allowed to incubate at room temperature for at least one hour. A mouse monoclonal antibody 14H4-23 (Drexel University) was used a positive control. The anti-mouse IgG Fc captured the anti-GP73 mouse antibody from the supernatant. Following the incubation, the supernatants were washed off using distilled water. An irrelevant mouse-human chimeric antibody was added to all wells and incubated at room temperature for 30 min to block any captured mouse antibodies that react with the human IgG Fc fusion protein linked to the GP73 antigen. The wells were washed with distilled water and GP73-hFc was added to the plates at 200 ng/mL and incubated for 30 min. Following this incubation, the antigen was washed from the plates using distilled water. Biotin labeled goat anti-GP73 was added to the plates at 200 ng/mL and incubated for 30 min at room temperature. The plates were washed and streptavidin-HRPO (Jackson Immunoresearch) (diluted to approximately 200 ng/mL) was added to the plates and allowed to incubate for 30 min. The plates were washed with distilled water and OPD substrate was used as the chromagen to generate signal. Plates were read at 492 nm and the results were analyzed.
Positive clones were expanded to 24 well plates in IMDM supplemented with 10% FBS and HT supplement. Following 5-14 days growth, the 24 well cultures were evaluated by EIA in the same manner as previously described, except the supernatant samples were titrated against GP73-hFc and BSA to eliminate non-specific protein binders. Once again the clones generating signal at least 3 times greater than background were considered positive and selected for further evaluation.

The target in experiment [2] is T2, E. coli expressed human GP73 (amino acids 63 to 400) with C-terminal 6xHis tag (human, UniProt Q8NBJ4 64-401).
T2 construct: No human Fc, not glycosylated; also called GP73 produced in E. coli; E. coli GP73
T2 sequence: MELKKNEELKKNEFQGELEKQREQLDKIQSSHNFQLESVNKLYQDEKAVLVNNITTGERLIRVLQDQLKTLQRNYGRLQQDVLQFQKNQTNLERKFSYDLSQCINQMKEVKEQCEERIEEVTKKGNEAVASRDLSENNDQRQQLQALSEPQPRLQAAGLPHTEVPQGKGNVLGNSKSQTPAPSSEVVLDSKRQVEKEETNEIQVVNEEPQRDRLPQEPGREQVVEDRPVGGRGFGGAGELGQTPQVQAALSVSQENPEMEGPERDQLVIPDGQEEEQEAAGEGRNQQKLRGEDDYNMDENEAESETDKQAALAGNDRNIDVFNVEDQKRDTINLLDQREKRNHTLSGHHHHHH
As to the kind of experiment: Binds E. coli GP73 (summary table; EIA on coated E. coli GP73). On the procedure:
The purified anti-GP73 mAbs were tested for EIA reactivity to human IgG, GP73 produced in E. coli, and GP73-hFc produced in HEK 293 cells. A mouse-human chimeric antibody, GP73 produced in E. coli, and GP73-hFc produced in HEK 293 cells were coated on micro titer plates at approximately 1000 ng/mL and allowed to incubate over night at 4-8° C. After the capture reagent was coated on the solid phase, it was removed and blocked using a BSA/PBS block solution. The wells were washed with distilled water. Purified anti-GP73 and negative control mAbs were added to the blocked plates in serial dilutions starting at 1000 ng/mL and allowed to incubate at room temperature for approximately 30 min. The wells were washed with distilled water. Goat anti-mouse IgG-HRP (Jackson Immunoresearch) was added to the wells at approximately 250 ng/mL and allowed to incubate for approximately 30 min at room temperature. The plates were washed with distilled water and OPD substrate was used as the chromagen to generate signal. Plates were read at 492 nm and the results were analyzed.

B1: anti-GP73 monoclonal antibody 1B-3440 (antibody, V domains shown)
VH: EVQLVETGGGLVQPKGSLKLSCAASGFTFNTNAMNWVRQAPGKGLEWVARIRTKRYNYTTFYADSVKDRFTISRDDSQSMLFLQMNNLKTEDTAMYYCVTGGTGTFDYWGQGTTLTVSS
VL: EIVLTQSPTTMPASPGEKVTFTCSASSGISSNYLHWYQLKPGFSPKLLIYRTSNLASGVPARFSGGGSGTSYSLTIGTMEAEDVATYYCQQGFSIPLTFGAGTKLELKR
notes: Biotin labelled in some assays; also called mAb 1B-3440; 1B-3440-Bt
Take B1: the “GP73-hFc OD (A492)” value in experiment [1] is 1.51 OD (A492). For the same molecule, the binding result in experiment [2] is given as “binds”.

B2: anti-GP73 monoclonal antibody 1B-4971 (antibody, V domains shown)
VH: QVQLQQSGPALVKPGASVKMSCKASGYTFTNYVIHWVKQKPGQGLERIGYIWPYNDGTKFNEKFKGKATLTSDKSSSTAYMELSSLTSEDSAVYYCSSQQLAYWGQGTTLTVSS
VL: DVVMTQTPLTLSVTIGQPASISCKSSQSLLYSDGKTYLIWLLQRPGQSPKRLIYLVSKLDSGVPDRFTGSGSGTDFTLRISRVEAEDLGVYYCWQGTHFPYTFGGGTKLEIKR
notes: Biotin labelled in some assays; also called mAb 1B-4971; 1B-4971-Bt
On to B2, for which, in experiment [1], the “GP73-hFc OD (A492)” value was 2.1 OD (A492). Moreover, the binding result in experiment [2] is on record as “binds”.

B3: anti-GP73 monoclonal antibody 1B-4863 (antibody, V domains shown)
VH: QVQLKESGPGLVAPSQSLSITCTVSGFSLTSYGVHWVRQSPGKGLEWLGVIWTGGSTNYNSALMSRLSISKDNSESQVFLKVNSLQTDDTGMYYCARDPGTDYFDYWGQGTTLTVSS
VL: DIVMTQSHKFMSTSIGDRVSISCKASQDVSIDVSWYQQKPGQSPTLLIYSASYRYIGVPDRFTGSGSGTAFTFTISSVQAEDLAIYYCQQHFTTPLTFGAGTKLELKR
notes: Biotin labelled in some assays; also called mAb 1B-4863; 1B-4863-Bt
Consider B3, for which, in experiment [1], the “GP73-hFc OD (A492)” value is 1.61 OD (A492).
